Assay results as given in article PMC7612376, “Structural basis of meiotic chromosome synaptic elongation through hierarchical fibrous assembly of SYCE2-TEX12” (Nature structural & molecular biology, 2021).

T1: SYCE2 full-length (1-218) (human, UniProt Q6PIF2 1-218)
T1 construct: SYCE2, human, full-length, residues 1-218; source: E. coli BL21 (DE3), co-expressed with TEX12, purified (Ni-NTA, amylose, ion exchange, SEC); not shown: MBP, N-terminal, cleaved
T1 sequence (looked up): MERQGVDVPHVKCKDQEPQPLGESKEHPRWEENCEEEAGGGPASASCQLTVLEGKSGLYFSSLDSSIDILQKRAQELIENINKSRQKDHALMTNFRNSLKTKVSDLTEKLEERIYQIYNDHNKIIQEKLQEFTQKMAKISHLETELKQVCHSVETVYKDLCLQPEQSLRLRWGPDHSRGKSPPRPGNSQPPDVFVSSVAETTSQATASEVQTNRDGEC

T2: SYCE2 core (amino-acids 57-165) (human, UniProt Q6PIF2 57-165)
T2 construct: SYCE2, human, core, residues 57-165; also called SYCE2 structural core; source: E. coli BL21 (DE3), co-expressed with TEX12, purified (Ni-NTA, amylose, ion exchange, SEC); not shown: MBP, N-terminal, cleaved
T2 sequence (looked up): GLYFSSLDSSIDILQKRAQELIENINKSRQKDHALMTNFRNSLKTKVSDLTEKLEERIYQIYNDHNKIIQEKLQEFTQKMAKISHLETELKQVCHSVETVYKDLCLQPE


Assays:
Assay in all cases: SEC-MALS; co-purified complexes at >1 mg/ml on Superdex 200 Increase 10/300 GL in 20 mM Tris pH 8.0, 150 mM KCl, 2 mM DTT; in Fig. 1 core at 200 uM and full-length at 100 uM (4 mg/ml)
[1] = target: the molecule itself
[2] = target: T1, SYCE2 full-length (1-218); conditions: both partners purified
[3] = target: T2, SYCE2 core (amino-acids 57-165); conditions: both partners purified

Binder | percent of total mass as 2:2 complex (not self-associated) [1] [%] | percent of total mass as 4:4 complex [1] [%] | stoichiometry N [1] | stoichiometry N [2] | stoichiometry N [3]
SYCE2-TEX12 full-length wild-type, 2:2 building block (complex, human, SYCE2, human, full-length, residues 1-218; TEX12, human, full-length, residues 1-123; m2 + m9; also called full-length SYCE2-TEX12; source: E. coli BL21 (DE3), co-expressed, purified (Ni-NTA, amylose, ion exchange, SEC); not shown: MBP, N-terminal, cleaved; His6, N-terminal, cleaved; copies: 2 + 2) chain 1: MERQGVDVPHVKCKDQEPQPLGESKEHPRWEENCEEEAGGGPASASCQLTVLEGKSGLYFSSLDSSIDILQKRAQELIENINKSRQKDHALMTNFRNSLKTKVSDLTEKLEERIYQIYNDHNKIIQEKLQEFTQKMAKISHLETELKQVCHSVETVYKDLCLQPEQSLRLRWGPDHSRGKSPPRPGNSQPPDVFVSSVAETTSQATASEVQTNRDGEC chain 2: MMANHLVKPDNRNCKRPRELESPVPDSPQLSSLGKSDSSFSEISGLFYKDEALEKDLNDVSKEINLMLSTYAKLLSERAAVDASYIDEIDELFKEANAIENFLIQKREFLRQRFTVIANTLHR | 12 | 18 | 2 2:2 building blocks |  | 
SYCE2-TEX12 full-length FFV (TEX12 F102A F109A V116A), 2:2 building block (complex, human, SYCE2, human, full-length, residues 1-218; TEX12, human, full-length, residues 1-123, with F102A, F109A and V116A; m2 + m14; source: E. coli BL21 (DE3), co-expressed, purified (Ni-NTA, amylose, ion exchange, SEC); not shown: MBP, N-terminal, cleaved; His6, N-terminal, cleaved; copies: 2 + 2) chain 1: MERQGVDVPHVKCKDQEPQPLGESKEHPRWEENCEEEAGGGPASASCQLTVLEGKSGLYFSSLDSSIDILQKRAQELIENINKSRQKDHALMTNFRNSLKTKVSDLTEKLEERIYQIYNDHNKIIQEKLQEFTQKMAKISHLETELKQVCHSVETVYKDLCLQPEQSLRLRWGPDHSRGKSPPRPGNSQPPDVFVSSVAETTSQATASEVQTNRDGEC chain 2: MMANHLVKPDNRNCKRPRELESPVPDSPQLSSLGKSDSSFSEISGLFYKDEALEKDLNDVSKEINLMLSTYAKLLSERAAVDASYIDEIDELFKEANAIENALIQKREALRQRFTAIANTLHR | 15 | 20 | 2 2:2 building blocks |  | 
TEX12 full-length F102A F109A V116A (natural protein, human, UniProt Q9BXU0 1-123, looked up, TEX12, human, full-length, residues 1-123, with F102A, F109A and V116A; also called FFV (full-length); source: E. coli BL21 (DE3), co-expressed with SYCE2, purified (Ni-NTA, amylose, ion exchange, SEC); not shown: His6, N-terminal, cleaved) MMANHLVKPDNRNCKRPRELESPVPDSPQLSSLGKSDSSFSEISGLFYKDEALEKDLNDVSKEINLMLSTYAKLLSERAAVDASYIDEIDELFKEANAIENALIQKREALRQRFTAIANTLHR |  |  |  | 1 TEX12 per SYCE2 (2:2) | 
TEX12 full-length L110E F114E I117E L121E (natural protein, human, UniProt Q9BXU0 1-123, looked up, TEX12, human, full-length, residues 1-123, with L110E, F114E, I117E and L121E; also called LFIL (full-length); source: E. coli BL21 (DE3), co-expressed with SYCE2, purified (Ni-NTA, amylose, ion exchange, SEC); not shown: His6, N-terminal, cleaved) MMANHLVKPDNRNCKRPRELESPVPDSPQLSSLGKSDSSFSEISGLFYKDEALEKDLNDVSKEINLMLSTYAKLLSERAAVDASYIDEIDELFKEANAIENFLIQKREFERQRETVEANTEHR |  |  |  | 1 TEX12 per SYCE2 (2:2) | 
TEX12 core F102A F109A V116A (domain or fragment, human, UniProt Q9BXU0 49-123, looked up, TEX12, human, core, residues 49-123, with F102A, F109A and V116A; also called FFV (core); source: E. coli BL21 (DE3), co-expressed with SYCE2, purified (Ni-NTA, amylose, ion exchange, SEC); not shown: His6, N-terminal, cleaved) KDEALEKDLNDVSKEINLMLSTYAKLLSERAAVDASYIDEIDELFKEANAIENALIQKREALRQRFTAIANTLHR |  |  |  |  | 1 TEX12 per SYCE2 (4:4)
SYCE2-TEX12 core wild-type MBP-fusion, 2:2 building block (complex, human, SYCE2, human, core, residues 57-165; TEX12, human, core, residues 49-123; m6 + m16; found as a 4:4 complex in solution; also called SYCE2-TEX12 core MBP-fusion wild-type; source: E. coli BL21 (DE3), co-expressed, purified; not shown: MBP, N-terminal, kept; copies: 2 + 2) chain 1: GLYFSSLDSSIDILQKRAQELIENINKSRQKDHALMTNFRNSLKTKVSDLTEKLEERIYQIYNDHNKIIQEKLQEFTQKMAKISHLETELKQVCHSVETVYKDLCLQPE chain 2: KDEALEKDLNDVSKEINLMLSTYAKLLSERAAVDASYIDEIDELFKEANAIENFLIQKREFLRQRFTVIANTLHR |  |  | 2 2:2 building blocks |  | 
SYCE2-TEX12 core H89E/Y115E, 2:2 building block (complex, human, SYCE2, human, core, residues 57-165, with H89E and Y115E; TEX12, human, core, residues 49-123; m4 + m8; also called H89E Y115E mutation; source: E. coli BL21 (DE3), co-expressed, purified (Ni-NTA, amylose, ion exchange, SEC); not shown: MBP, N-terminal, cleaved; His6, N-terminal, cleaved; copies: 2 + 2) chain 1: GLYFSSLDSSIDILQKRAQELIENINKSRQKDEALMTNFRNSLKTKVSDLTEKLEERIEQIYNDHNKIIQEKLQEFTQKMAKISHLETELKQVCHSVETVYKDLCLQPE chain 2: KDEALEKDLNDVSKEINLMLSTYAKLLSERAAVDASYIDEIDELFKEANAIENFLIQKREFLRQRFTVIANTLHR | 60 | 40 | 2 2:2 building blocks |  | 
SYCE2-TEX12 core wild-type, 2:2 building block (complex, human, SYCE2, human, core, residues 57-165; TEX12, human, core, residues 49-123; in solution it is found as 4:4 complex and larger assemblies, which are the rows of this molecule with itself; also called core complex; wild-type core; source: E. coli BL21 (DE3), co-expressed, purified (Ni-NTA, amylose, ion exchange, SEC); not shown: MBP, N-terminal, cleaved; His6, N-terminal, cleaved; copies: 2 + 2) chain 1: GLYFSSLDSSIDILQKRAQELIENINKSRQKDHALMTNFRNSLKTKVSDLTEKLEERIYQIYNDHNKIIQEKLQEFTQKMAKISHLETELKQVCHSVETVYKDLCLQPE chain 2: KDEALEKDLNDVSKEINLMLSTYAKLLSERAAVDASYIDEIDELFKEANAIENFLIQKREFLRQRFTVIANTLHR |  | 75 | 2 2:2 building blocks |  | 
TEX12 core L110E F114E I117E L121E (domain or fragment, human, UniProt Q9BXU0 49-123, looked up, TEX12, human, core, residues 49-123, with L110E, F114E, I117E and L121E; also called LFIL (core); source: E. coli BL21 (DE3), co-expressed with SYCE2, purified (Ni-NTA, amylose, ion exchange, SEC); not shown: His6, N-terminal, cleaved) KDEALEKDLNDVSKEINLMLSTYAKLLSERAAVDASYIDEIDELFKEANAIENFLIQKREFERQRETVEANTEHR |  |  |  |  | 1 TEX12 per SYCE2 (2:2)
